Data as given in patent US20220362303A1.

Molecular target: trypsin (T9253, Merck Life Sciences) (UniProt P00760)
Experiment: cell-based or functional assay

T9253 sequence (P00760 24-246): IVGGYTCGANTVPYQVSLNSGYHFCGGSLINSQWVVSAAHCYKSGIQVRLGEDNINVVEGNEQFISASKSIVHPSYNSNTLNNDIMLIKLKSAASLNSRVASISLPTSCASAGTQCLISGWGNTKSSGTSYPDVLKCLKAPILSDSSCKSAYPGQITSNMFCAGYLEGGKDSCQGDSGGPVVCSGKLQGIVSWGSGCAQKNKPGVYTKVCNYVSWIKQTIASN

| µg trypsin inhibited by 1 mg sample (BAPNA trypsin inhibition assay) (µg trypsin inhibited by 1 mg sample) | µg trypsin inhibited (BAPNA trypsin inhibition assay, casein at 0.1 mg/ml) (µg trypsin inhibited) | Substance |
| --- | --- | --- |
| 1.43 |  | Human EGF (Peprotech, New Jersey, USA) (from UniProt P01133 971-1023) (ligand) |
| 703 |  | Ovomucoid (Sigma, USA) (from UniProt P01005 25-210) |
| 3.24 | 0.34 | calcium caseinate (C16) |
| 838 |  | soya bean trypsin inhibitor (SBTI, Roche, Calif., USA) (from UniProt P01070 25-205) |
